The supplement of paper PMC12042874
± gives the uncertainty stated by the source.

Experiment: amyloid nucleation score (Sup35N fusion, yeast selection) (log enrichment); library NNK3; higher = more nucleation; inactive = no reads after selection
Outline: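 Nucleation score is defined as the DiMSum log enrichment of output over input reads, with centring on the mode score of non-aggregating sequences. A minimum of 100 input reads was required for each sequence. Reads came from Illumina sequencing of plasmid inserts from psi-negative yeast expressing Sup35N fused to peptides of 20 random codons, induced with 100 μM copper sulfate for 24 hours and grown 7 days at 30°C on medium lacking adenine and uracil.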

| Substance | amyloid nucleation score |
| --- | --- |
| SFFGVVGKEFVIVQLAIVSG | inactive |
| LNCMQVYFICVTWFAC | inactive |
| DSCKIYGG | inactive |
| LSWTYGRMGLRRLGGTGCYG | inactive |
| LKLWYPLSFIDVRAPRA | inactive |
| IRFVLYISGILSCWFNRWNN | inactive |
| VGCIRGNGFVTQQATGY | inactive |
| NSLVLTLLNLVGKSLHHFYN | inactive |
| VWDYLVAYYVALKNVTDSGQ | inactive |
| VIVICFIFLMNVIPIQACWT | inactive |
| LSGADTYRSTTRSYGGNDVV | -0.641 ± 1.1 |
| FSCMTADSNSGIVRVR | inactive |
| TGVVTMF | inactive |
| FNWLGLGLMLGIDRDRCDNV | inactive |
| TCTAFQMHI | 0.007 ± 0.68 |
| GMQALIVFSSVVMRYAFVEG | -1.18 ± 1.7 |
| TEQRMQ | inactive |
| KGSTLVMLP | inactive |
| EIFGSISG | inactive |
| GSMFFNVC | 0.254 ± 0.28 |
| DPYAGLDNLTRIWASKPSKY | inactive |
| LARLCCLSVSFSKLLIVFTI | inactive |
| VTLCLSKLAF | 1.26 ± 0.097 |

| Substance | amyloid nucleation score |
| --- | --- |
| SKCVYAVWCACVFARF | inactive |
| VGNEECIYQIRFFLRLSGSL | inactive |
| GGKHPGMCFHCEWLGYWFTS | inactive |
| RIDRFCSFFNRSPSDCLLLS | inactive |
| QTMAAYLYSWNNTV | inactive |
| LCICFRNLLFEWCSLAE | inactive |
| CKAESLWFNGLF | inactive |
| PRRSNSFRLPLIHISQYSLK | 0.939 ± 0.2 |
| ISTLGYFAELVI | inactive |
| GLVLISKC | inactive |
| NGYTNASS | inactive |
| RVSLLNKGVGLRNIRFHEFL | inactive |
| ARICIAACIRAICDGFSGRR | inactive |
| IYAGS | -0.633 ± 0.96 |
| KFSNSASFSGFYFNNYLSSQ | 0.95 ± 0.096 |
| GWGPGARGGLEDRGDCVCFL | inactive |
| MALHRFS | inactive |
| TKLMGLSVLLIEVIVGVSCW | inactive |
| SEGFLAWCLRDLRSGRVAR | inactive |
| TSLWRLL | inactive |
| TKTFSDVMLYQCAARCKDLH | inactive |
| IDQCNIVGTRKNGHAL | inactive |
| HGFERSRSGNRSGLIDDLGC | inactive |

| Substance | amyloid nucleation score |
| --- | --- |
| YHTAWWAEMCIDIKNGEL | inactive |
| CIGIYFLIRGTYILIVFSL | -0.607 ± 1 |
| ARVVVG | inactive |
| VVDCWSVKATSDSYDGMWGV | inactive |
| GRLLRTMVD | inactive |
| DSFRDRGCQQKIEIF | inactive |
| HVLYRRSSPYCVRWCNITER | inactive |
| VFVVLLALSYGSDNTV | inactive |
| LCCRQVTFERDVVVRYRRRR | inactive |
| IEFRLWYG | inactive |
| EHIEIRSSFEVSPHTPNPAS | inactive |
| NEGWPLWQWSSAVKHTFSKR | 0.422 ± 0.31 |
| FTCQSHAILGVDDDTWGRTN | inactive |
| KVFPFEVEVLFFHGGDMSCG | -0.121 ± 0.36 |
| RYDLIVKVVVSGESVSTWCC | inactive |
| PVKRVIYSRGYVQKCPLCP | inactive |
| DFWKL | inactive |
| CENIVGMPDRRISSVAGPDG | 0.486 ± 0.33 |
| WYLSYSTIAFHYWEFYGYAD | inactive |
| SVTFSHVRTSRIRCGIMVYP | inactive |
| FSLDPTIVMSVIARDSMSML | inactive |
| YIEYIWWRLSSWLRSMKGLR | inactive |
| GGFVLC | inactive |

| Substance | amyloid nucleation score |
| --- | --- |
| RPVAFPIR | inactive |
| VSLVMSQVLRHHRCLLIYYL | inactive |
| IFHGSLYGFHYEPCLQAWAA | inactive |
| NFPYYSEYFFLCIRDSTSKS | inactive |
| LWLSDRNSLDSIAVCA | 1.24 ± 0.093 |
| DNFRVDLVNRLLFYRISHAA | inactive |
| NWAGLHIVKYRLPPHTHLWH | inactive |
| MTYHDGTGLFGVVL | inactive |
| VFKFVLLSLYMFQWGNAFPM | inactive |
| HITCVMSIKTRGLRMTERGS | 1.51 ± 0.096 |
| KIICRAWYMSVGERRA | -0.449 ± 1.4 |
| AGGSLWKAL | inactive |
| TAIRIMMRV | inactive |
| QDFYFISILACGYIWH | inactive |
| SLLRDVKG | -0.487 ± 1.4 |
| IYDSRWTTNDSSCTTVFTEQ | inactive |
| LIARCKRAIAGGY | inactive |
| RPVTPC | inactive |
| CFSDGPLRVHSIGQRWLRCR | inactive |
| KMRSSVYFLDYNWNKTLPCL | -0.541 ± 1.1 |
| SGIYTMVWAFGFDVLYLLVS | inactive |
| NLPHIYRDHRRFWVGFSIMT | 1.12 ± 0.17 |
| YSESMRGNQ | inactive |

| Substance | amyloid nucleation score |
| --- | --- |
| LYLIFFCLWSSQLDAQLFVL | -0.217 ± 0.93 |
| LYVFCTSY | inactive |
| YDNLTARESSYFIFFCFLVY | inactive |
| NWTYTAENPG | inactive |
| VRVSNSFMTDTK | inactive |
| ISDDICSFVAHSAILFGRQM | inactive |
| SMRSGVLGHIIQTM | inactive |
| ETISFYLCLLYDVKLVNALM | -0.54 ± 0.68 |
| IYVHNYFISVVIMVYFTMLP | inactive |
| MRVVECLMRSLCRLDVRVHC | inactive |
| AYSVYVFALYRLNFYVLLRN | inactive |
| ECCQSSSVITNFSSFVKGGA | inactive |
| NMRKLVCDMEIWMIFCAKSN | 0.505 ± 0.28 |
| YSVWVGLCVYSDGYRYNMPE | 2.06 ± 0.062 |
| SWYESKFVAVRWWIGDPLRG | 0.703 ± 0.26 |
| KGEFIRPTSMVKYTDGLESG | inactive |
| FSFITL | inactive |
| SLFMMWLYVCQLYCLFDGIE | inactive |
| QVLQKVHG | inactive |
| CRHPTGKACELCELACFN | inactive |
| ICSMYTTVSRNTEL | inactive |
| EVYLETCRGILFCALDTIFG | -0.264 ± 1 |
| LAVFSNRRCFFLENQYHRRS | inactive |

| Substance | amyloid nucleation score |
| --- | --- |
| VVDLIRNCKDRTVDLLDGIA | inactive |
| FKCTVIGDTILPNTFSLWRF | inactive |
| SYTSMFPRCQKIHLRQVRIS | inactive |
| SMLISRSEHLRLDTFGDSRY | 0.634 ± 0.13 |
| STFSYSPVACWCFGGISQVG | -0.797 ± 2.5 |
| KASVSTRFMII | inactive |
| LILGTNYQIY | 1.27 ± 0.17 |
| RSPTNV | inactive |
| IPVSHVAMNGECGWVSDIKH | inactive |
| ASSPLITRDDKAHGLEFHSY | inactive |
| VMFIVNLY | 3.07 ± 0.08 |
| EFMSSVGIYMEIDCTLGVCD | inactive |
| CFYSNQASQVLLLYHP | 0.771 ± 0.2 |
| GCAKVKLI | -0.292 ± 0.75 |
| SFMYVCNLLLSSWSCP | 1.83 ± 0.063 |
| NSFYNWSSEKKL | inactive |
| YHLDFMMGINSFRRVKAEPG | inactive |
| KEGNGMSFYN | inactive |
| FTPLCSNVAGRNMEQYCS | inactive |
| SCWLGVVETRHNLYDAQNGS | inactive |
| SVDYDMARSVGCPFWSPKRV | inactive |
| FIIWAMDWVFASRL | inactive |
| SAPRAEVSNRIK | inactive |

| Substance | amyloid nucleation score |
| --- | --- |
| YRIGCRF | inactive |
| MFVWHSC | inactive |
| CQRGTVADAPYLQRRLGLLY | inactive |
| ILVFVFSLRRIFAYMAVMSG | inactive |
| FVHRLPGWGSKLKTIRTCSN | inactive |
| WISSSGIPFDRYLLWYNSVG | inactive |
| SNILAA | inactive |
| RCTVDVFMHCSKLSNAELSL | 0.833 ± 0.12 |
| GKYVVIDIGRSYFSKISGFR | inactive |
| DGCSRVMFNASGAMRRKVAN | inactive |
| LFGCEQRYP | inactive |
| TSGKGFYMLSVGVRVYQWDI | inactive |
| KASWRMLC | inactive |
| ISMLMFDLA | inactive |
| DRSDSMYPINMREESREFTF | inactive |
| KSRSYPCIEPNV | inactive |
| YWMLNAHRNW | inactive |
| GYMGVGRIVSA | inactive |
| VSESSFRLCGGLRSGCLKSA | inactive |
| WYNDVMEVESLISYVDFFRE | inactive |
| DYHLQLKMLRPW | inactive |
| IVQTLYNLAAVHSTWAIRFQ | -0.142 ± 0.4 |
| IRVIISGVLGTELKNALAKY | inactive |
